One may read the Km as the substrate concentration at which the rate is half of its maximum. A word on the kcat: it is the maximal rate divided by the concentration of active sites. By kcat/Km is commonly meant the second-order rate constant that governs catalysis at low substrate concentration. The Vmax is the rate approached at saturating substrate.

The values that follow come from patent US20060030015A1 (published 2006).

Substitutions are numbered along the chain they refer to.

Assay [1] deals with CDR1 antigen peptide (…), synthetic peptide of CDR 1 of the light chain of antibody 41S-2. Put plainly: cell-based or functional assay.
A further assay concerns the target HSA (human, UniProt P02768 25-609). Nature of the assay: ELISA (immunoassay of Experiment 3-3), absorbance at 405 nm. In general terms: ELISA stands for enzyme-linked immunosorbent assay.
Another assay addresses T1, OVA (UniProt P01012 2-386).
T1 sequence (looked up): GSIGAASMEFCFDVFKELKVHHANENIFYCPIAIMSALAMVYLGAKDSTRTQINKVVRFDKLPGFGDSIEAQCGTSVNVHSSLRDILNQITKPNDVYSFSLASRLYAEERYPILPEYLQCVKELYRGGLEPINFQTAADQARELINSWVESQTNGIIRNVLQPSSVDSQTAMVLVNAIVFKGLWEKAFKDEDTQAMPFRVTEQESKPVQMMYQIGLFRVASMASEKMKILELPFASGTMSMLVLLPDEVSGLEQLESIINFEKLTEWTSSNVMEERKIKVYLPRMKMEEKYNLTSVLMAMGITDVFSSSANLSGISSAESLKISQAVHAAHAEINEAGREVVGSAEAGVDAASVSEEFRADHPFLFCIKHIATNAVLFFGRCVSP
Described as above.

In assay [2] the target is ECL2B peptide (…), partial peptide of CCR-5 (human). Put plainly: cell-based or functional assay.
ECL2B peptide (…), partial peptide of CCR-5 (human), sequence (peptide, as listed by the source): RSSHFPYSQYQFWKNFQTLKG
The target of assay [3] is ECL2B peptide (sequence No.38) as named in Experiment 3-9 (human). Put plainly: cell-based or functional assay.
Assay [4] deals with peptide TP41-1 of a retention region of gp41 (HIV-1) (…) (HIV-1). Nature of the assay: cell-based or functional assay.

HSA, sequence (P02768 25-609): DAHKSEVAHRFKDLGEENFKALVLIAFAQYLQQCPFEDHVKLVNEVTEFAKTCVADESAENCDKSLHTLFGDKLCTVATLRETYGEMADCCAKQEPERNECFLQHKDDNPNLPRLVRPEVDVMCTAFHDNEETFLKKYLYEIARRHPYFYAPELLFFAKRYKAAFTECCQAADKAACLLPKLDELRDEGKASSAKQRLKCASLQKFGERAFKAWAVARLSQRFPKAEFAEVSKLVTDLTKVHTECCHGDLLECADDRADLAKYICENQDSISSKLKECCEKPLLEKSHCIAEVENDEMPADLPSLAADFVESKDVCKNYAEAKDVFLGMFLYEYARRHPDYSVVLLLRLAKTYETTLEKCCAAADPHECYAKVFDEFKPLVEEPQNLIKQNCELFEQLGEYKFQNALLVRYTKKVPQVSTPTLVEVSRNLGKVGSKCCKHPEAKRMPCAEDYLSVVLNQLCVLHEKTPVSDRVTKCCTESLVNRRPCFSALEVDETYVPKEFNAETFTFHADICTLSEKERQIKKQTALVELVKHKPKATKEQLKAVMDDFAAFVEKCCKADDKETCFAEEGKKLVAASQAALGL
Description for HSA: (§1) The blocking was applied with 2% gelatin at room temperature.
Description for OVA: as §1

B1: heavy chain of i41SL1-2 antibody (i41SL1-2-H) (protein)
VH: QVQLQHSGAELVRPGSSVKVSCKALGYTSTDYEIHWVKQTPVRGLEWIGAIHPGSDVIVYNQKFKGTATLTADKSSSTAYMELRSLTSEDSAVYYCTREGGSVDYVWGQGTLVTVSA
As for B1, in assay [1], the Km was determined as 13 µM, the turnover number (kcat) was 0.0103 s⁻¹ and the catalytic efficiency (kcat/Km) was found to be 812 M⁻¹ s⁻¹.

B2: monoclonal antibody ECL2B-2 (antibody, V domains shown)
VH: DVKLVESGGGLVKPGGSLKLSCAASGFTFSRYTMSWVRQTPEKRLEWVATISSGGSYTYYPDSVKGRFTISRDIAKNTLYLQMSSLKSEDTALYYCTREGGYGAFASWGQGTLVTVS
VL: DVLMTQTPLSLPVSLGDQASISCRSSQSIVHSNGNTYLEWYLQKPGQSPKLLIYKVSNRFSGVPDRFSGSGSGTDFTLKINRVAAEDLGVYYCFQGSHVPWTFGGGTKLEIKR
notes: also called intact monoclonal antibody ECL2B-2
With B2, the binding result with HSA and in the assay with OVA was “no binding” each time.

B3: light chain of ECL2B-2 (ECL2B-2-L) (protein)
VL: DVLMTQTPLSLPVSLGDQASISCRSSQSIVHSNGNTYLEWYLQKPGQSPKLLIYKVSNRFSGVPDRFSGSGSGTDFTLKINRVAAEDLGVYYCFQGSHVPWTFGGGTKLEIKRA
B3 registered a time until the ECL2B peptide disappeared (RP-HPLC) in assay [2] of 90 h.

B4: light chain of ECL2B-4 (ECL2B-4-L) (protein)
VL: B3 VL with L51F, N81S, A84E, A85T
For the molecule B4, in assay [3], the Km turned out to be 35 µM, the maximal velocity (Vmax) worked out at 0.31 µM/min, the kcat is 0.012 s⁻¹ and the kcat/Km is 367 M⁻¹ s⁻¹. Also, in assay [4], the Michaelis constant (Km) is 12.5 µM, the maximal velocity (Vmax) came out at 0.0624 µM/min, the kcat was determined as 0.00267 s⁻¹ and the kcat/Km was determined as 208 M⁻¹ s⁻¹.

B5: light chain of i41SL1-2 antibody (i41SL1-2-L) (protein)
VL: DIVMTQTQLTLTINIGQPASISCKSSQSLLDSDGKTYLNWLFQRPGQSPKRLIYLVSKLDSGVPDRFTGSGSGTDFTLKISRVEAEDLGVYYCWQGTHFPLTFGAGTKLELRRA
Take B5: in assay [1], the Michaelis constant (Km) was 2 µM, the kcat came to 0.0102 s⁻¹ and the catalytic efficiency (kcat/Km) is 5170 M⁻¹ s⁻¹.

B6: monoclonal antibody ECL2B-3 (antibody, V domains shown)
VH: QIQLVQSGPELKKPGETVKISCKASGYTFTNYGMNWVKQAPGKGLEWMGWINTYTGEPTYAGDFMGRSVFSLETSASTAYLQINNLENKDTATYICARSGSPYAMDYWGQGTSVTVS
VL: DIALTQSPASLAVSLGQRATISCKASQSVDYDGDSYMNWFQQKPGQPPKLLIYAASNLESGIPGRFSGSGSGTDFTLNIHPVEEEDIATYYCQQSYEDPFTFGSGTILDIKR
Turning to B6, the binding result with HSA and with OVA was “no binding” throughout.
